Measurements published in IntAct's records for PubMed 9701578.

B1: Receptor protein kinase CLAVATA1 (Arabidopsis thaliana (Mouse-ear cress)), Q9SYQ8 (parent)
chain: MAMRLLKTHLLFLHLYLFFSPCFAYTDMEVLLNLKSSMIGPKGHGLHDWIHSSSPDAHCSFSGVSCDDDARVISLNVSFTPLFGTISPEIGMLTHLVNLTLAANNFTGELPLEMKSLTSLKVLNISNNGNLTGTFPGEILKAMVDLEVLDTYNNNFNGKLPPEMSELKKLKYLSFGGNFFSGEIPESYGDIQSLEYLGLNGAGLSGKSPAFLSRLKNLREMYIGYYNSYTGGVPPEFGGLTKLEILDMASCTLTGEIPTSLSNLKHLHTLFLHINNLTGHIPPELSGLVSLKSLDLSINQLTGEIPQSFINLGNITLINLFRNNLYGQIPEAIGELPKLEVFEVWENNFTLQLPANLGRNGNLIKLDVSDNHLTGLIPKDLCRGEKLEMLILSNNFFFGPIPEELGKCKSLTKIRIVKNLLNGTVPAGLFNLPLVTIIELTDNFFSGELPVTMSGDVLDQIYLSNNWFSGEIPPAIGNFPNLQTLFLDRNRFRGNIPREIFELKHLSRINTSANNITGGIPDSISRCSTLISVDLSRNRINGEIPKGINNVKNLGTLNISGNQLTGSIPTGIGNMTSLTTLDLSFNDLSGRVPLGGQFLVFNETSFAGNTYLCLPHRVSCPTRPGQTSDHNHTALFSPSRIVITVIAAITGLILISVAIRQMNKKKNQKSLAWKLTAFQKLDFKSEDVLECLKEENIIGKGGAGIVYRGSMPNNVDVAIKRLVGRGTGRSDHGFTAEIQTLGRIRHRHIVRLLGYVANKDTNLLLYEYMPNGSLGELLHGSKGGHLQWETRHRVAVEAAKGLCYLHHDCSPLILHRDVKSNNILLDSDFEAHVADFGLAKFLVDGAASECMSSIAGSYGYIAPEYAYTLKVDEKSDVYSFGVVLLELIAGKKPVGEFGEGVDIVRWVRNTEEEITQPSDAAIVVAIVDPRLTGYPLTSVIHVFKIAMMCVEEEAAARPTMREVVHMLTNPPKSVANLIAF
partner: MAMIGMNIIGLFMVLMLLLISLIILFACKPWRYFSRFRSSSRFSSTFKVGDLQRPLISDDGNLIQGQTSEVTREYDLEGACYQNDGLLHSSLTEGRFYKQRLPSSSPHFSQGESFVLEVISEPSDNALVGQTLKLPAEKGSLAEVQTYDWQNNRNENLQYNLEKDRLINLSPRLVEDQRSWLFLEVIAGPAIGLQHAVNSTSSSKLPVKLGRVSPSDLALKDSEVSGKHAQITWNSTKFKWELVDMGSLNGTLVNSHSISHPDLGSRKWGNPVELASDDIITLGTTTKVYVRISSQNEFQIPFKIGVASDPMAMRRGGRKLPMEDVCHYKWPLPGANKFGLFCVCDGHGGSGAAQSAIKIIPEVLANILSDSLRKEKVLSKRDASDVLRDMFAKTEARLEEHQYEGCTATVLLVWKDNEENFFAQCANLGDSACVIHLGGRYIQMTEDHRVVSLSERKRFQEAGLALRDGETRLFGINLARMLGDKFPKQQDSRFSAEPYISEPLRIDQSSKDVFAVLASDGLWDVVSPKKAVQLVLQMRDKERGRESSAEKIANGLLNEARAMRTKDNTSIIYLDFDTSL

Variants of: B1
Details: with KAPP

effect of a mutation on the interaction | Variant
disrupting interaction | K720E
